According to patent US20250019439A1 (Adimab, published 2025):

How the values were obtained:
ADI-22523 IgG = target: T1, ADI-22523 IgG; assay: BLI; tip anti-ID IgG, solution ADI-22523 IgG
T1 construct: anti-CD3 IgG
Method: (§1) ForteBio affinity measurements were performed generally as previously described (Estep et al., MAbs. 2013 5(2):270-8). Briefly, ForteBio affinity measurements were performed by loading antibody IgG or Fabs on-line onto AHC sensors. Sensors were equilibrated off-line in assay buffer for 30 minutes and then monitored on-line for 60 seconds for baseline establishment. For avid binding measurement, sensors with loaded antibodies were exposed to IgG or Fab solutions for 3 minutes, afterwards they were transferred to assay buffer for 3 minutes for off-rate measurement. Kinetics data were fit using a 1:1 binding model in the data analysis software provided by ForteBio to obtain equilibrium dissociation constant (KD=koff/kₒₙ) values. In each column, tip-immobilized antibodies are listed first and solution antibodies second.

ADI-76357 = target: T2, ADI-76357; assay: SPR Carterra avidity, yeast anti-ID, *koff limit
T2 construct: anti-CD3 antibody made in CHO cells, captured by anti-human Fc
Method: (§2) Kinetic analysis was conducted at 25° C. in an HBSTE running buffer system (Carterra Cat #3630) using a Carterra LSA (Carterra USA, Salt Lake City, UT). The sample compartment was maintained at 20° C. for the duration of each experiment.
(§3) For antibody capture experiments, a goat anti-human Fc antibody (Jackson ImmunoResearch) was covalently coupled to an HC30M sensor chip surface via standard amine coupling (1:1 EDC:NHS) and then blocked with ethanolamine (1.0 M, pH 8.5). Covalent coupling steps were performed in 25 mM MES buffer (Carterra, Cat #3625) plus 0.05% Tween20. The anti-CD3 antibodies (100 nM in running buffer) were flowed over discrete regions of interest on the chip surface for 5 minutes. […] Dissociation of the anti-idiotype antibodies was monitored for 300s. Several blank buffer samples were injected over the entire chip surface at the start of each non-regenerative kinetic cycle. The preceding blank buffer injection was used for blank surface subtraction. At the end of each non-regenerative kinetic cycle, all surfaces were regenerated via two 30s injections of 10 mM glycine, pH 1.7.
(§4) For data processing and fitting, sensorgrams were double reference subtracted with a baseline drift correction of 4 RU. Sensorgrams were y-aligned and baseline corrected, filtered and cropped to include only the association and dissociation steps. Data was fitted to a 1:1 binding model using Carterra Kinetics Data Analysis software version 1.7.1.3055.

ADI-26916 IgG = target: T3, ADI-26916 IgG; assay: SPR Carterra avidity, yeast anti-ID, *koff limit
T3 construct: anti-CD3 IgG
Method: as §2, §3, §4

ADI-26924 = target: T4, ADI-26924; assay: SPR Carterra avidity, yeast anti-ID, *koff limit
T4 construct: anti-CD3 antibody made in CHO cells, captured by anti-human Fc
Method: as §2, §3, §4

ADI-26913 IgG = target: T5, ADI-26913 IgG; assay: SPR Carterra avidity, yeast anti-ID, *koff limit
T5 construct: anti-CD3 IgG
Method: as §2, §3, §4

ADI-26920 IgG = target: T6, ADI-26920 IgG; assay: SPR Carterra avidity, yeast anti-ID, *koff limit
T6 construct: anti-CD3 IgG
Method: as §2, §3, §4

ADI-26906 IgG = target: T7, ADI-26906 IgG; assay: SPR Carterra avidity, yeast anti-ID, *koff limit
T7 construct: anti-CD3 IgG
Method: as §2, §3, §4

ADI-26919 = target: T8, ADI-26919; assay: SPR Carterra avidity, yeast anti-ID, *koff limit
T8 construct: anti-CD3 antibody made in CHO cells, captured by anti-human Fc
Method: as §2, §3, §4

ADI-26943 = target: T9, ADI-26943; assay: SPR Carterra avidity, yeast anti-ID, *koff limit
T9 construct: anti-CD3 antibody made in CHO cells, captured by anti-human Fc
Method: as §2, §3, §4

ADI-22523 Fab = target: T10, ADI-22523 Fab; assay: BLI; tip anti-ID IgG, solution ADI-22523 Fab
T10 construct: anti-CD3 Fab by papain digestion of the IgG
Method: as §1

CTL-62240 = target: T11, CTL-62240; assay: SPR Carterra, yeast anti-ID
T11 construct: also called ONO-4685
Method: as §2, §3, §4

CTL-62223 = target: T12, CTL-62223; assay: SPR Carterra, yeast anti-ID
T12 construct: also called mosunetuzumab
Method: as §2, §3, §4

ADI-70330 = target: T13, ADI-70330; assay: SPR Carterra, yeast anti-ID
T13 construct: anti-CD3 antibody made in CHO cells, captured by anti-human Fc
Method: as §2, §3, §4

ADI-70327 = target: T14, ADI-70327; assay: SPR Carterra, yeast anti-ID
T14 construct: anti-CD3 antibody made in CHO cells, captured by anti-human Fc
Method: as §2, §3, §4

CTL-62228 = target: T15, CTL-62228; assay: SPR Carterra, yeast anti-ID
T15 construct: also called glofitamab
Method: as §2, §3, §4

CTL-62227 = target: T16, CTL-62227; assay: SPR Carterra, yeast anti-ID
T16 construct: also called odronextamab
Method: as §2, §3, §4

ADI-26915 = target: T17, ADI-26915; assay: SPR Carterra, yeast anti-ID
T17 construct: anti-CD3 antibody made in CHO cells, captured by anti-human Fc
Method: as §2, §3, §4

ADI-67445 = target: T18, ADI-67445; assay: SPR Carterra, yeast anti-ID
T18 construct: anti-CD3 antibody made in CHO cells, captured by anti-human Fc
Method: as §2, §3, §4

ADI-76361 = target: T19, ADI-76361; assay: SPR Carterra avidity, yeast anti-ID
T19 construct: anti-CD3 antibody made in CHO cells, captured by anti-human Fc
Method: as §2, §3, §4

ADI-26912 = target: T20, ADI-26912; assay: SPR Carterra avidity, yeast anti-ID
T20 construct: anti-CD3 antibody made in CHO cells, captured by anti-human Fc
Method: as §2, §3, §4

ADI-76362 = target: T21, ADI-76362; assay: SPR Carterra avidity, yeast anti-ID
T21 construct: anti-CD3 antibody made in CHO cells, captured by anti-human Fc
Method: as §2, §3, §4

ADI-48587 = target: T22, ADI-48587; assay: SPR Carterra avidity, yeast anti-ID
T22 construct: pH-dependent anti-CD3 antibody made in CHO cells
Method: as §2, §3, §4

ADI-67447 = target: T23, ADI-67447; assay: SPR Carterra avidity, yeast anti-ID
T23 construct: anti-CD3 antibody made in CHO cells, captured by anti-human Fc
Method: as §2, §3, §4

ADI-76359 = target: T24, ADI-76359; assay: SPR Carterra avidity, yeast anti-ID
T24 construct: anti-CD3 antibody made in CHO cells, captured by anti-human Fc
Method: as §2, §3, §4

ADI-76358 = target: T25, ADI-76358; assay: SPR Carterra avidity, yeast anti-ID
T25 construct: anti-CD3 antibody made in CHO cells, captured by anti-human Fc
Method: as §2, §3, §4

ADI-48576 = target: T26, ADI-48576; assay: SPR Carterra avidity, yeast anti-ID
T26 construct: pH-dependent anti-CD3 antibody made in CHO cells
Method: as §2, §3, §4

ADI-26921 IgG = target: T27, ADI-26921 IgG; assay: SPR Carterra avidity, yeast anti-ID
T27 construct: anti-CD3 IgG
Method: as §2, §3, §4

ADI-70326 = target: T28, ADI-70326; assay: SPR Carterra avidity, yeast anti-ID
T28 construct: anti-CD3 antibody made in CHO cells, captured by anti-human Fc
Method: as §2, §3, §4

ADI-74965 = target: T29, ADI-74965; assay: SPR Carterra avidity, yeast anti-ID
T29 construct: pH-dependent anti-CD3 antibody made in CHO cells
Method: as §2, §3, §4

ADI-67450 = target: T30, ADI-67450; assay: SPR Carterra avidity, yeast anti-ID
T30 construct: anti-CD3 antibody made in CHO cells, captured by anti-human Fc
Method: as §2, §3, §4

ADI-76360 = target: T31, ADI-76360; assay: SPR Carterra avidity, yeast anti-ID
T31 construct: anti-CD3 antibody made in CHO cells, captured by anti-human Fc
Method: as §2, §3, §4

ADI-48650 = target: T32, ADI-48650; assay: SPR Carterra avidity, yeast anti-ID
T32 construct: pH-dependent anti-CD3 antibody made in CHO cells
Method: as §2, §3, §4

ADI-50024 = target: T33, ADI-50024; assay: SPR Carterra avidity, yeast anti-ID
T33 construct: anti-CD3 antibody made in CHO cells, captured by anti-human Fc
Method: as §2, §3, §4

ADI-74968 = target: T34, ADI-74968; assay: SPR Carterra avidity, yeast anti-ID
T34 construct: pH-dependent anti-CD3 antibody made in CHO cells
Method: as §2, §3, §4

ADI-74967 = target: T35, ADI-74967; assay: SPR Carterra avidity, yeast anti-ID
T35 construct: pH-dependent anti-CD3 antibody made in CHO cells
Method: as §2, §3, §4

ADI-26909 = target: T36, ADI-26909; assay: SPR Carterra avidity, yeast anti-ID
T36 construct: anti-CD3 antibody made in CHO cells, captured by anti-human Fc
Method: as §2, §3, §4

ADI-74966 = target: T37, ADI-74966; assay: SPR Carterra avidity, yeast anti-ID
T37 construct: pH-dependent anti-CD3 antibody made in CHO cells
Method: as §2, §3, §4

ADI-48592 = target: T38, ADI-48592; assay: SPR Carterra avidity, yeast anti-ID
T38 construct: pH-dependent anti-CD3 antibody made in CHO cells
Method: as §2, §3, §4

T23 sequence (VH, as listed by the source limits assumed, chain 1 of 2): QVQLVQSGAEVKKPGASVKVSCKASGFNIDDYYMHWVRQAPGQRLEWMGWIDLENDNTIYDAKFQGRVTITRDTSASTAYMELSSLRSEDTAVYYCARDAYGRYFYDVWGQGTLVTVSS
T23 sequence (VL, as listed by the source limits assumed, chain 2 of 2): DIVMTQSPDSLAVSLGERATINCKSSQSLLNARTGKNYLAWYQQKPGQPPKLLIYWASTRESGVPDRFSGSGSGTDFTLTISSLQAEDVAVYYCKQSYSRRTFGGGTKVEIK
T7 sequence (VH, as listed by the source limits assumed, chain 1 of 2): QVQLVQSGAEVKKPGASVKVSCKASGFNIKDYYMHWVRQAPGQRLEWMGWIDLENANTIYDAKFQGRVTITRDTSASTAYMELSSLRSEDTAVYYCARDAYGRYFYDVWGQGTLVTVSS
T8 sequence (VL, as listed by the source limits assumed, chain 2 of 2): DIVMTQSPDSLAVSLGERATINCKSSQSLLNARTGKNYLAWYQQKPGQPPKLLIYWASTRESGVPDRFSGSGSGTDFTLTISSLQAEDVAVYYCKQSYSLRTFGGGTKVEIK
T14 sequence (VH, as listed by the source limits assumed, chain 1 of 2): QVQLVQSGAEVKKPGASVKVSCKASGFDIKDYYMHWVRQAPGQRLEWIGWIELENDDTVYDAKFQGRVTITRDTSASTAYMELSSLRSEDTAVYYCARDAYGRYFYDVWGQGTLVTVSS
T14 sequence (VL, as listed by the source limits assumed, chain 2 of 2): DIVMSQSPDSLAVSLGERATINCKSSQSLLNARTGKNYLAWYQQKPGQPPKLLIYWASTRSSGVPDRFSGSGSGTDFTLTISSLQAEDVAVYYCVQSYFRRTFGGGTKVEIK
T9 sequence (VH, as listed by the source, chain 1 of 2): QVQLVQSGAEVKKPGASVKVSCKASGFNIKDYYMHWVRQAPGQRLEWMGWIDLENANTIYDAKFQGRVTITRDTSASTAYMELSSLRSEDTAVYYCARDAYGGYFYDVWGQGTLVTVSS
T9 sequence (VL, as listed by the source, chain 2 of 2): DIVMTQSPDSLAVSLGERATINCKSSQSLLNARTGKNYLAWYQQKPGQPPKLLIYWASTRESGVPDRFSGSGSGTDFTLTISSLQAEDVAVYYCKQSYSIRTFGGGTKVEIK
T26 sequence (VH, as listed by the source, chain 1 of 2): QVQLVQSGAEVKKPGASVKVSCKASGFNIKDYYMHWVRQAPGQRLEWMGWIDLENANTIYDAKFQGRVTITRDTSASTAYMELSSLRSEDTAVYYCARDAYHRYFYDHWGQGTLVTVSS
T26 sequence (VL, as listed by the source, chain 2 of 2): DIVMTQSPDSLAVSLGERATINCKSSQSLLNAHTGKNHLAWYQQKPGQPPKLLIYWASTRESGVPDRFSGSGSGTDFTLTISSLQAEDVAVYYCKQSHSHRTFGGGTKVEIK
T12 sequence (VH, as listed by the source, chain 1 of 2): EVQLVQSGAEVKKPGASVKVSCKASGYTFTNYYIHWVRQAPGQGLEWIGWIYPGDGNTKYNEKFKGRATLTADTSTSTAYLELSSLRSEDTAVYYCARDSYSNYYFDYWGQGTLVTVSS
T12 sequence (VL, as listed by the source, chain 2 of 2): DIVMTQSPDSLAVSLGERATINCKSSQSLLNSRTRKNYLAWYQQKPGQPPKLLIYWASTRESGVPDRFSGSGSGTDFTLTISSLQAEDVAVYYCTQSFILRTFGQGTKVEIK
T38 sequence (VH, as listed by the source, chain 1 of 2): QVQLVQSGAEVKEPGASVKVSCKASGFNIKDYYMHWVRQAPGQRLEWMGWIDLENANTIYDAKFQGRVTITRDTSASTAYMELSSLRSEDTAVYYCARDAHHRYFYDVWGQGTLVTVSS
T38 sequence (VL, as listed by the source, chain 2 of 2): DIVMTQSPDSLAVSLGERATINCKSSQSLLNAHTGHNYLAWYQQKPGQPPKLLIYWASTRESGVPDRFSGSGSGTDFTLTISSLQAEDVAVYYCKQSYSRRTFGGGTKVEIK
T24 sequence (VH, as listed by the source, chain 1 of 2): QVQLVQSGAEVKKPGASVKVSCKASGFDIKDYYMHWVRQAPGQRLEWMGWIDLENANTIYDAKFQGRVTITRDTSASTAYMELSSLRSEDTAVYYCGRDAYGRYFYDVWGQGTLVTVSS
T37 sequence (VH, as listed by the source, chain 1 of 2): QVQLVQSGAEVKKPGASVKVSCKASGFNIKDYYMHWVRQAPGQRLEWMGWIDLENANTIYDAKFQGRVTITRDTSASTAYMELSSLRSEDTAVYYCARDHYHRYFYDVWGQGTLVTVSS
T37 sequence (VL, as listed by the source, chain 2 of 2): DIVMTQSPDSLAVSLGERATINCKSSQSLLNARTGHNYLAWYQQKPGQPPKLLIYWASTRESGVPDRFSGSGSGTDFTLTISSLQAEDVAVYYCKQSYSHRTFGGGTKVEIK
T35 sequence (VL, as listed by the source, chain 2 of 2): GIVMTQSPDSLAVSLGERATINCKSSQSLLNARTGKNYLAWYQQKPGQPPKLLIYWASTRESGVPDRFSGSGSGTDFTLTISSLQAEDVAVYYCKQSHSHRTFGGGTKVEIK
T22 sequence (VL, as listed by the source, chain 2 of 2): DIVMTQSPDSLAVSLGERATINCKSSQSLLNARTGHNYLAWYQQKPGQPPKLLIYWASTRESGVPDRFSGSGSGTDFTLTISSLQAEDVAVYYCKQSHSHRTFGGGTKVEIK
T2 sequence (VH, as listed by the source, chain 1 of 2): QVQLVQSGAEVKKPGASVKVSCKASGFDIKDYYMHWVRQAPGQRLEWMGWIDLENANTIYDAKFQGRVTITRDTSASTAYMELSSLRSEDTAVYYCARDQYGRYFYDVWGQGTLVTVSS
T21 sequence (VH, as listed by the source, chain 1 of 2): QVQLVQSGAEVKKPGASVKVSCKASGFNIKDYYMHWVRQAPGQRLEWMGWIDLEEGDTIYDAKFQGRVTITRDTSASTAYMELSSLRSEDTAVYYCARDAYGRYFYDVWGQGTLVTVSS
T6 sequence (VH, as listed by the source limits assumed, chain 1 of 2): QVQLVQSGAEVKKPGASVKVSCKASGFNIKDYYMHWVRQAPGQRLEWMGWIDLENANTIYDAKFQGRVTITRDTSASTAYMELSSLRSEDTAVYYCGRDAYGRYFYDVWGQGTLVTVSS
T5 sequence (VH, as listed by the source limits assumed, chain 1 of 2): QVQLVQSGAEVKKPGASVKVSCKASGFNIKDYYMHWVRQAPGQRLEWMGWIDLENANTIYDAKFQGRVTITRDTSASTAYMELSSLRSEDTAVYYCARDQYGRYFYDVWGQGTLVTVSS
T27 sequence (VH, as listed by the source limits assumed, chain 1 of 2): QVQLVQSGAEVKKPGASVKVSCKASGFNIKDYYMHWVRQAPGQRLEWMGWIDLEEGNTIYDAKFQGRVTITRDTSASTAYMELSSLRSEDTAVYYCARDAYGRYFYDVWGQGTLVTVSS
T4 sequence (VH, as listed by the source, chain 1 of 2): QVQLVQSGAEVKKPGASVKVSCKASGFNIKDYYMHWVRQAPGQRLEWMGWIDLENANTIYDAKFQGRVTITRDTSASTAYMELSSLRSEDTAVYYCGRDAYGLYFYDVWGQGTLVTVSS

B1: ADI-34141 (antibody, V domains shown)
VH: EVQLLESGGGLVQPGGSLRLSCAASGFTFSSYAMSWVRQAPGKGLEWVSTISGSGGSTYYADSVKGRFTISRDNSKNTLYLQMNSLRAEDTAVYYCARLGGRRGSGSSYYYYYGMDVWGQGTTVTVSS
VL: not shown
notes: anti-ID IgG
**Q.** B1 was tested. Which Kd (ADI-22523 IgG) did it give?
**A.** Its Kd is 2.83 nM.

**Q.** And the Kd (ADI-76357)?
**A.** Its Kd is 7.6 nM.

**Q.** And the Kd (ADI-26916 IgG)?
**A.** The Kd was 10 nM.

**Q.** And the Kd (ADI-26924)?
**A.** The Kd was 5.4 nM.

**Q.** What about the Kd (ADI-26913 IgG) of the same binder?
**A.** The Kd was 7 nM.

**Q.** And the Kd (ADI-26920 IgG)?
**A.** The Kd was 7.1 nM.

**Q.** What about the Kd (ADI-26906 IgG) of the same binder?
**A.** The Kd was 13 nM.

**Q.** And the Kd (ADI-26919)?
**A.** The Kd was 10 nM.

**Q.** And the Kd (ADI-26943)?
**A.** The Kd was 5.7 nM.

**Q.** What about the Kd (ADI-22523 Fab) of the same binder?
**A.** Its Kd is 16.5 nM.

**Q.** Does B1 bind (CTL-62240)?
**A.** Result: no binding (tested: up to 200 nM)

**Q.** Does B1 bind (CTL-62223)?
**A.** Result: no binding (tested: up to 200 nM)

**Q.** Does B1 bind (ADI-70330)?
**A.** Result: no binding (tested: up to 200 nM)

**Q.** Does B1 bind (ADI-70327)?
**A.** Result: no binding (tested: up to 200 nM)

**Q.** Does B1 bind (CTL-62228)?
**A.** Result: no binding (tested: up to 200 nM)

**Q.** Does B1 bind (CTL-62227)?
**A.** Result: no binding (tested: up to 200 nM)

**Q.** Does B1 bind (ADI-26915)?
**A.** Result: no binding (tested: up to 200 nM)

**Q.** Does B1 bind (ADI-67445)?
**A.** Result: no binding (tested: up to 200 nM)

**Q.** Does B1 bind (ADI-76361)?
**A.** Result: binds

**Q.** Does B1 bind (ADI-26912)?
**A.** Result: binds

**Q.** Does B1 bind (ADI-76362)?
**A.** Result: binds

**Q.** Does B1 bind (ADI-48587)?
**A.** Result: binds

**Q.** What about the Kd (ADI-67447) of the same binder?
**A.** Its Kd is 17 nM.

**Q.** And the Kd (ADI-76359)?
**A.** The Kd was 14 nM.

**Q.** Does B1 bind (ADI-76358)?
**A.** Result: binds

**Q.** What about the Kd (ADI-48576) of the same binder?
**A.** Its Kd is 22 nM.

**Q.** Does B1 bind (ADI-26921 IgG)?
**A.** Result: binds

**Q.** Does B1 bind (ADI-70326)?
**A.** Result: binds

**Q.** And the Kd (ADI-74965)?
**A.** Its Kd is 33 nM.

**Q.** Does B1 bind (ADI-67450)?
**A.** Result: binds

**Q.** And the Kd (ADI-76360)?
**A.** The Kd was 54 nM.

**Q.** Does B1 bind (ADI-48650)?
**A.** Result: binds

**Q.** Does B1 bind (ADI-50024)?
**A.** Result: binds

**Q.** What about the Kd (ADI-74968) of the same binder?
**A.** Its Kd is 63 nM.

**Q.** And the Kd (ADI-74967)?
**A.** Its Kd is 32 nM.

**Q.** Does B1 bind (ADI-26909)?
**A.** Result: binds

**Q.** What about the Kd (ADI-74966) of the same binder?
**A.** Its Kd is 51 nM.

**Q.** Does B1 bind (ADI-48592)?
**A.** Result: binds
